We go through ten molecules from patent US6183967, “Nucleic acid ligand inhibitors to DNA polymerases” (NeXstar Pharmaceuticals).

The target of data set [1] is T1, Taq DNA polymerase (Thermus aquaticus, UniProt P19821 P19821:1-832). Put plainly: inhibition; 45C; IT50 56.1C. Conditions: tags: rTaq, 94 kDa, Roche Molecular Systems; label: end-labeled. On the procedure:
(§1) As set forth in Table 12, the $IT50$ values of truncated ligands TQH6-Tr, TQH22-Tr and TQH28-Tr were decreased by 5–9° C. upon truncation.
(§2) Measurement of $IC50$ Values. $IC50$ values (the concentration of inhibitor required to produce 50% of the product in the assay) were obtained using hairpin extension assays. In a typical inhibition assay, a 20 μL reaction contained either 0.25 (0.04) pmoles of Taq polymerase (5 U) (1 U), 0.125 pmoles of Tth polymerase (2.5 U) or 0.05 pmoles of TZ05 polymerase (1 U), oligonucleotide inhibitor (at varying concentrations), […] dNTPs in either Tris or Tricine buffer (Taq and Tth pol) or TZ05 buffer (TZ05 pol). Gel purified, 5'-end-labeled hairpin DNA substrate (DNA-HP; 5'-[…]-3' (SEQ ID NO:6)) was then added to a final concentration of 250 nM and the reactions were incubated for a given time at the desired temperature as indicated in the figure legends (30 minutes for TZ05 pol). The reaction was stopped by adding 5 μL of 0.5 M EDTA (pH 8.0) followed by formamide gel loading buffer. Extension products were resolved on 10% polyacrylamide gels under denaturing conditions and quantitated by phosphorimager. The amount of products formed in the presence of inhibitor was normalized to the product formed in the absence of an inhibitor to obtain the percent of product.

The target in data set [2] is T1, Taq DNA polymerase. Put plainly: FP filter; Tris buffer 55C; 3.8 pM at 40C; Tricine 5.6 (40C), 18 (55C) pM; IT50 56C. Conditions: tags: rTaq, 94 kDa, Roche Molecular Systems; label: end-labeled. The method, then: (§3) Binding interactions of individual sequences with Taq polymerase was measured by nitrocellulose filter binding at 55° C. […] Clones 6 (SEQ ID NO:78), 22 (SEQ ID NO:81) and 28 (SEQ ID NO:87) all show high-affinity binding to Taq polymerase at 55° C. as characterized by their K_d values in the low picomolar range.
(§4) The binding analysis shown in FIGS. 4A–E were performed in the Tris buffer at 55° C. […] (Table 7).

Data set [3] concerns the target T1, Taq DNA polymerase. Put plainly: FP filter; 55C; IT50 44.6C. To be noted: tags: rTaq, 94 kDa, Roche Molecular Systems; label: end-labeled.
Data set [4] deals with T1, Taq DNA polymerase. In words: FP filter; 55C; IT50 52.3C. Conditions: tags: rTaq, 94 kDa, Roche Molecular Systems; label: end-labeled.
Data set [5] deals with T1, Taq DNA polymerase. In words: FP filter; Tris buffer 55C; 5 pM at 40C; Tricine 4.6 (40C), 36 (55C) pM; IT50 54.8C. To be noted: tags: rTaq, 94 kDa, Roche Molecular Systems; label: end-labeled. The method, then: as §3, §4
Data set [6] deals with T1, Taq DNA polymerase. In words: inhibition; 45C. Conditions: tags: rTaq, 94 kDa, Roche Molecular Systems; label: end-labeled. On the procedure: as §1, §2
For data set [7], the target named is T1, Taq DNA polymerase. Put plainly: FP filter; printed as >>1000; 55C; IT50 <40C. Conditions: tags: rTaq, 94 kDa, Roche Molecular Systems; label: end-labeled. On the procedure: as §3
Data set [8] deals with T1, Taq DNA polymerase. In words: FP filter; 55C; IT50 53.7C. To be noted: tags: rTaq, 94 kDa, Roche Molecular Systems; label: end-labeled. On the procedure: as §3
Data set [9] has as its target T1, Taq DNA polymerase. Put plainly: FP filter; Tris buffer 55C; 5 pM at 40C; Tricine 9.4 (40C), 116 (55C) pM; IT50 52C. Conditions: tags: rTaq, 94 kDa, Roche Molecular Systems; label: end-labeled. On the procedure: as §3, §4
Data set [10] concerns the target T1, Taq DNA polymerase. In words: FP filter; 55C; IT50 52C. Conditions: tags: rTaq, 94 kDa, Roche Molecular Systems; label: end-labeled.
Data set [11] has as its target T1, Taq DNA polymerase. In words: FP filter; 55C; IT50 41C. To be noted: tags: rTaq, 94 kDa, Roche Molecular Systems; label: end-labeled.
Data set [12] deals with T1, Taq DNA polymerase. In words: FP filter; Tm 51C. To be noted: tags: rTaq, 94 kDa, Roche Molecular Systems; stem-loop. The method, then:
Room Temperature. To assess the affinity of oligonucleotide libraries and individual ligands the nitrocellulose filter binding technique was used. Briefly, gel-purified ^32P ss-DNA pools labeled at the 5' end were suspended in the binding buffer, heated to 80° C., chilled on ice and then brought to room temperature. The DNA (5–10 pM) was then incubated for 15 minutes at room temperature with varying amounts of the target polymerase in 50 µL of the appropriate binding buffer containing 0.1 µg of tRNA and 0.01% hSA. The DNA concentrations were kept lower than 100 pM to ensure equilibrium in the presence of excess protein concentrations. […] The amount of DNA bound to the filters was quantitated by measuring the radioactivity of the filters by liquid scintillation counting. The quantity of DNA bound to filters in the absence of protein was used for background correction. […]
[1]The boxed region denotes the conserved sequence element with the predicted stem-loop structure identified in the Family I sequences; vertical lines signify Watson-Crick type base pairing; circles show an uncommon G-T base pair. [2]K_d values were measured by the nitrocellulose filter binding technique described in Example 1. [3]Melting transitions (T_m) were measured in a PCR buffer containing 10 mM Tris-HCl, 50 mM KCl, 2 mM MgCl_2, pH 8.3, at a 1° C./min temperature ramp.

Changes are numbered by the printed parent chain.

T1 sequence (P19821 whole entry, the tested form may be a part, one chain of several): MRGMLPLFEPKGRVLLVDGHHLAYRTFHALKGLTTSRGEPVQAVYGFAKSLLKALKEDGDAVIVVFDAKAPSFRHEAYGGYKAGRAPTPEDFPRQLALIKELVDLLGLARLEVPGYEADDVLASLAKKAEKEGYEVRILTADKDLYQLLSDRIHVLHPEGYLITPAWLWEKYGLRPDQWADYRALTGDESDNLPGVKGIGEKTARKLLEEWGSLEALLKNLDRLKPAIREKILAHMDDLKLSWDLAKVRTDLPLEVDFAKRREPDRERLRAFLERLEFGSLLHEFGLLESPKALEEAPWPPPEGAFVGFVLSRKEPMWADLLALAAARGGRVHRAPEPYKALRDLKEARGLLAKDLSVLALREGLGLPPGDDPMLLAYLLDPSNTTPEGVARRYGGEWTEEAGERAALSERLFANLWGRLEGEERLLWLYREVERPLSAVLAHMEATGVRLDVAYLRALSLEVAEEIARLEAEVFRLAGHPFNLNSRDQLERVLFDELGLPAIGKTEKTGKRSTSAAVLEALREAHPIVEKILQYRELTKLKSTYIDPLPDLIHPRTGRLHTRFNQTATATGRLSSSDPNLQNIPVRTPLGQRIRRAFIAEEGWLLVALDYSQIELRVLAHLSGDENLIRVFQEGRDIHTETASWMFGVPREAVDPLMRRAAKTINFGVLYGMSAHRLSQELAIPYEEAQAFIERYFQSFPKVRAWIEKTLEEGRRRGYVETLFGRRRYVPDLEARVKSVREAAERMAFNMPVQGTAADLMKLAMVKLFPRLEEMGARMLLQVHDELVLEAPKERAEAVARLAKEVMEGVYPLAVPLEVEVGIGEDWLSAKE

B1: ligand 22 (TQH22) / TZ3 (ssDNA)
DNA: TTCTCGGTTGGTCTCTGGCGGAGCATACACGACGTCATTCTAGCGTTTTGACGTCTTGTGTATGATTCGCTTTTCCC
One may read the IC50 as the midpoint of a concentration-inhibition curve. Higher therefore signals weaker potency. For orientation: Kd means a measure of binding affinity in units of concentration. Consider B1, for which the IC50 in [1] was 37 nM. In addition, the Kd in data set [2] amounted to 0.014 nM.

B2: ligand 10 (ssDNA)
DNA: TTCTCGGTTGGTCTCTGGCGGAGCGGATCAGACACGAAACATTGCGGACTTTTGTCTTGTGTATGATTCGCTTTTCCC
On to B2, for which binding in data set [3] was characterised by a dissociation constant (Kd) of 0.03 nM.

B3: ligand 15 (ssDNA)
DNA: TTCTCGGTTGGTCTCTGGCGGAGCATGCACAGCGACATTCTCAGCGTTTTGTCGTCTTGTGTATGATTCGCTTTTCCC
For B3, in [4], binding was characterised by a dissociation constant (Kd) of 0.0138 nM.

B4: ligand 6 (TQH6) (ssDNA)
DNA: TTCTCGGTTGGTCTCTGGCGGAGCGAATCATACGAAGACATTCCAACGTTTTGTCTTGTGTATGATTCGCTTTTCCC
Take B4: the Kd in data set [5] was 0.0085 nM. Further, the IC50 in data set [6] came to 30 nM.

B5: ligand 18 (ssDNA)
DNA: TTCTCGGTTGGTCTCTGGCGGAGCATACACGACGTCATTCTAGCGTTTTGTCTTGTGTATGATTCGCTTTTCCC
As for B5, the Kd in [7] is over 1 nM.

B6: ligand 19 (ssDNA)
DNA: TTCTCGGTTGGTCTCTGGCGGAGCGAATCGGACATCAAGGGTTCCAGCAGTGCTTCTTGTGTATGATTCGCTTTTCCC
In [8], B6 gave a Kd of 0.0112 nM.

B7: ligand 28 (TQH28) (ssDNA)
DNA: TTCTCGGTTGGTCTCTGGCGGAGCAGGAGCAAGAATCATTCTTAGCGTTTTGATTCTTGTGTATGATTCGCTTTTCCC
As to B7, the IC50 in data set [6] stood at 37 nM. The Kd in data set [9] was 0.0135 nM.

B8: ligand 36 (Taq selection) (ssDNA)
DNA: B7 DNA with G27A
With B8, the Kd in [10] was 0.031 nM.

B9: ligand 20 (ssDNA)
DNA: TTCTCGGTTGGTCTCTGGCGGAGCGATCAGACACGAAACATTGCGGACTTTTGTCTTGTGTATGATTCGCTTTTCCC
Molecule B9 gave a Kd in [11] of 0.105 nM.

B10: Trnc.A-30 (30-mer) (ssDNA)
DNA: AAGACCAGACAATGTACAGTATTGGCCTGA
modifications: [none]
Take B10: the affinity in data set [12], expressed as Kd, was 0.6 nM.
